Series [1] concerns Insulin glargine single chain precursor (Fglargine), glargine pro-peptide.
Series [2] concerns the target Insulin glargine single chain precursor (Fglargine), glargine pro-peptide. This is another data set of the same source.

Results on 2 molecules are retold here after US20150118710.

Several values for one entry are separate records, joined by “and”; a condition that tells them apart may be missing. Equal entries are not always repeated.

As to “endogenous Kex2p (Kexin endoprotease) of Pichia pastoris”, in series [1], the % conversion achieved (HPLC peak areas) was found to be 0%; the % yield increased (two chain glargine), clone without co-expression was 5% and 0%; the “secretion of two chain glargine (mass analysis of secreted product)” value was “it is not possible to secrete two chain glargine directly into the medium using endogenous Kex2p alone”.

B1: ΔKex2p, 660 amino acid functional domain of Kexin endoprotease (Kex2p) from Pichia pastoris (protein)
chain: MYLPALRLACWILIGLRSTEALETSEREIFALKLDKSWLPTFLETFQDKFRYERQINGLDDYHVFSHSKNEEFQLENFKVKTLLTRDNANLHSELISHNVDEVHMLRPSHYLHKRAPVVMDKSEELREQIAKDFDIDDPLFAKQWHLFNPRYPGHDVNVSQVWYDGITGKGVVTAIVDDGLDMDSKDLKESFCEEGSWDFNANTRLPKPRLRDDHHGTRCAAEIAAKKGNKYCGVGVAYDSKVSGIRILSDKITPEDEALSLIYGLDVNDIYSCSWGPADNGITMQGPSSLVKEAMLKGVQDGRKGKGALYVFASGNGASSGDNCNFDGYTNSIYSITVGAIDIKGLHPPYAEACSAVMTVTYSSGSGEHIHTTDINDKCSDTHGGTSAAAPLAAGLYSLVYQANPDLTWRDIQWLTVLTAVPVNEQEPGWQKTAIGKMYSHKYGYGKIDAYALVNLARSPDFPYLKPQSWIYGTEVHESLNTSEANGVLTSKYELTQEAKDLMNFEKIEHVTVTVDIKAAERGKVLVELISPSGVVSELAPYRRMDKDKEGFPNWTFMSVAHWGEDGLGEWILKITNKEGNSVVLNSWQIKFFGESQDPEKAEKFSLTKKYDEILVNPPSSSTSTTVDTSSTEATFSSSSVSEASATETDVKETSTTGD
In series [2], B1 returned a % conversion achieved (HPLC peak areas), Clone #2F6, GAP promoter of 9.44%; a % conversion achieved (HPLC peak areas), Clone #3C1, GAP promoter of 31.4%; a % conversion achieved (HPLC peak areas), Clone #4B7, GAP promoter of 33.6%; a % conversion achieved (HPLC peak areas), Clone #5C5, GAP promoter of 45%. Further, in series [2], the % conversion achieved (HPLC peak areas), Clone #IB4, GAP promoter is 13%; the % conversion achieved (HPLC peak areas), Clone# 6D6, GAP promoter is 59.5%; the % yield increased (two chain glargine), FLD1 promoter is over 93%; the % yield increased (two chain glargine), GAP promoter worked out at 60%.
